Laboratory results taken from the DeepSol protein solubility set.

Assay: soluble on expression in E. coli; label from the status in PepcDB or PDB records
For “SLLPSFFPCCRCKWSATGCGTCSTQDCEGICKMTSGEQAKTPLQAPILLTNVKPVGFGKGASQSSTDILIGGDGKIAAVGSALQAPADTQRIDAKGAFISPGWVDLHVHIWHGGTDISIRPSECGAERGVTTLVDAGSAGEANFHGFREYIIEPSRERIKAFLNLGSIGLVACNRVPELRDIKDIDLDRILECYAENSEHIVGLKVRASHVITGSWGVTPVKLGKKIAKILKVPMMVHVGEPPALYDEVLEILGPGDVVTHCFNGKSGSSIMEDEDLFNLAERCAGEGIRLDIGHGGASFSFKVAEAAIARGLLPFSISTDLHGHSMNFPVWDLATTMSKLLSVDMPFENVVEAVTRNPASVIRLDMENRLDVGQRADFTVFDLVDADLEATDSNGDVSRLKRLFEPRYAVIGAEAIAASRYIPRARKLVRHSHGYSWR”, the “soluble on expression in E. coli” value was “soluble”.
With “MKDVVIVGALRTPIGCFRGALAGHSAVELGSLVVKALIERTGVPAYAVDEVILGQVLTAGAGQNPARQSAIKGGLPNSVSAITINDVCGSGLKALHLATQAIQCGEADIVIAGGQENMSRAPHVLTDSRTGAQLGNSQLVDSLVHDGLWDAFNDYHIGVTAENLAREYGISRQLQDAYALSSQQKARAAIDAGRFKDEIVPVMTQSNGQTLVVDTDEQPRTDASAEGLARLNPSFDSLGSVTAGNASSINDGAAAVMMMSEAKARALNLPVLARIRAFASVGVDPALMGIAPVYATRRCLERVGWQLAEVDLIEANEAFAAQALSVGKMLEWDERRVNVNGGAIALGHPIGASGCRILVSLVHEMVKRNARKGLATLCIGGGQGVALTIERDE” the “soluble on expression in E. coli” value was “soluble”.
With “MGHHHHHHSHMAASTASQRPLKGILKDNTSTTSSMVASAEHPRGSVHEQLSKKSQKWDEMNILATYRPADKDYGLMKIDEPSTPYHSTMGDDEDACSDTETTEAMATDSLAKNLAAAEGLEPKYQVQEQESSGEEDSDLSPEEREKKRQFEMRRTLHYNEGLNIKLARQLISKDLHDDDKVEEMLETAHGESMNTEESNQGSTASDQQQNKSRSS” the “soluble on expression in E. coli” value was “not soluble”.
In the case of “MVCIAAKCGNECSQCKHCHYALEQMSALAQGEKTSGLCPKLETCVFNCLTEDVSKVLSCVATRCNVHCYDGDCPSCKMISRRIFSNICKQHSMTTQPQIKYEGTCPNLFMELADDYVAMKKKKL”, the “soluble on expression in E. coli” value is reported as “not soluble”.
With “GHRVWIMYAQPYQVTLQEQQQELAQLEMARSALDSLSELICLQDCQGNLLTTNRAFDQFWEGRREEAITATASRVATRKSERKWTTDTQGRSCLLEVNLSSLVSPS” the “soluble on expression in E. coli” value was “not soluble”.
For “VQREDGSWLLDGLIAVPELKDTLGLRAVPEEEKGVYHTLSGMIMWLLGRLPQTGDITFWENWRLEVIDMDSKRIDKVLATKIDNQPTEDPKPVA”, the “soluble on expression in E. coli” value was “soluble”.
With “MTVIVGPKTKPPEAIKDASMARQKQMVNAHYDRLASAKERGEKVAATFVPGNLNELLMCFDMVNNLPEVNAIQNGLRRQSGGYVMEAEKLGHSEDVCTYVKSDIGMMAKGNIGPNGKPLPDPDVLLLSYTGCFTFMKWFELLRRQYKCETIMFQTPYLADGRITKDMISYMVKQLRQDVIPKLERISGVKFDIDRLREYLRKSAKAEDDHVWVLQSAKHKPSPIDAYFGGIYYIGPIFGAFRGTDDAIEYYKFLRAEVEQRIAQGKGPVTPDGDMGQERYRLVVEGPPNYTNFRQFWKMFYDEGAVVVASSYTKVGGTYDYGFRHDPDRPLESLAEYCLNVYTNRNLPMRVDMLENYINEYEADGLLINSIKSCNSFSAGQLLMMREVEKRTGKPAAFIETDLVDPRYFSAANVKNRLESYFQMIEQKRAGFRGAA” the “soluble on expression in E. coli” value was “not soluble”.
With “EEIFCHVYITEHSYVSVKAKVSSIAQEILKVVAEKIQYAEEDLALVAITFSGEKHELQPNDLVISKSLEASGRIYVYRKDLADTLNPFAEN” the “soluble on expression in E. coli” value was “soluble”.
With “MEKTVNPFRIGIAPISWVNDDIPGLGDHYTQDQVLSEMAELGYVATEMGRLFSQDPPSLRAKLNQYGIELASKFIGVLFSDRSRLEEELETFQSWAEYLHDMGCKYAIVCEMGGSMHWDPRRAPEEKTIQRLTDSEWESLVDGLHRAAHICQELGMKLVYHFHAGTVVETAEEIDRLMELTDPNLVHLLYDTGHALYGGYDPVELLHRYADRIQYVHLKDIRRDVLEQVRREQLDFRTAVLRGMFTVPGDGCIDFVPIFSKLIEMGYNGWIIVEAEQDPAVAHPYTYAKMAKEYIDRLVHHLLAAQKR” the “soluble on expression in E. coli” value was “not soluble”.
With “MLRQLTFLFPTKFHRGKKLRTQRYRGLQSKEKKKLSLLTTKFSDEAWGDNHKNKVVYRAQDRFHNPLFIVLMVVKKKLDHKKLIDNNSHYHVCI” the “soluble on expression in E. coli” value was “not soluble”.
With “MAYKSLLTVATSPERVEPAITVASRLALSSDAHLDVLALGIDGTQVAYYNMGGTAVVLQMALERAEQEAQAVEKAAAAALSAQPAMLRASVESAVAQMGGLAGLVALRSRFADLVVLSRPYGKGRGAETEAVVEAALFEGQAPVLVVPDDPALSERFGHRIVIAWDQSREALTAVRKAMPFLLRADNVDIVIVDPAAHGAERSDPGGALCQMLVRHGVRAEVSVLAKTMPRISDVIARHVRDQDADLLVMGAYGHSRFREAILGGATRDMLELAEVPVLMAH” the “soluble on expression in E. coli” value was “not soluble”.
For “GSNSQVWSALQMSKALQDSAPDRPSPVERIVSRDIARGYERIPIPCVNAVDSEPCPSNYKYVSQNCVTSPMNIDRNITHLQYCVCIDDCSSSNCMCGQLSMRCWYDKDGRLLPEFNMAEPPLIFECNHACSCWRNCRNRVVQNGLRARLQLYRTRDMGWGVRSLQDIPPGTFVCEYVGELISDSEADVREEDSYLFDLDNKDGEVYCIDARFYGNVSRFINHHCEPNLVPVRVFMAHQDLRFPRIAFFSTRLIEAGEQLGFDYGERFWDIKGKLFSCRCGSPKCRHS”, the “soluble on expression in E. coli” value was “soluble”.
For “MGSDKIHHHHHHMDKIYVLDTNVLLQDPLSIFSFETNEVVIPAVVLEEVDSKKRYMDEVGRNARYVSKLIDKFREIGKLHESIPLENGGTFRIELNHRSFVQLQDIFVEKTNDNRILAVAKNLSLEEQEKEDGKSVILVSKDVLVRVKADAIGLKAEDYLSDRVIEVENIYSGFLEGYISKEQLDYFYEKGELPLSEIANHPFYPNQFVVMKDALGGSSSALGIVDHLGKKVKKLIFHNEQVWGIRPRNVQQIMGLELLLREDIPLVTLTGKAGTGKTLLALASGLMQTEDLGLYKKLLVARPIVPVGKDIGYLPGEKEEKLRPWMQPIFDNLEYLFNTKKPGELDAILAGMGSIEVEALTYIRGRSIPDQFIIIDEAQNLTKHEVKTILTRVGEKSKIVLMGDPQQIDHPYLDEYNNGLTYVVEKFKEQRISGHVKFVKGERSNLAQLAADLL”, the “soluble on expression in E. coli” value was “not soluble”.
In the case of “TTATRQEVLGLYRSIFRLARKWQATSGQMEDTIKEKQYILNEARTLFRKNKNLTDTDLIKQCIDECTARIEIGLHY”, the “soluble on expression in E. coli” value is reported as “soluble”.
For “MSLDKLNAISIFCKVIETQSFTLAAKQQNISVAMASKLVSQLEEHLKTRLLQRTTRKIMPTEAGMMYYQRCQGILLDLDEADSSITQLTSSLQGNLLISVPRDFGLLFIAPNLPTFMAKHPHLHIEVEFNDKKIDLLSEGYDLALRIGYMEDSSLVSRKIGTTTVHFAASPNYLETNGIPQTPDDLEHHNGLLYKNAMNQVNWVGSRINQTQRFKIQSKVVSNSGFALLNMAKAGLGIANLPKFILGRAFEKGELIEILPEYKQQKLEIHVVYPNRRHLPIKVTGISLNFEGHHHHHH”, the “soluble on expression in E. coli” value was “not soluble”.
With “MNDDRATAFNALKNKTVCVQGDGNSRQFYHALVEILSNHSSAIPVNKNGNDFCNAPFAQCPQDTYYFDLVDKSDNLSVKLYWRWAPEFSDIECPMKVPSGFTPGSNYSFPSGPDTLSCDINIMDAGQWELFEKDANVTTAGYSQGVSNLSKCFSSDKSAKYFWIAAYALTPEQLQIHLPYNNTDVERINEVATQGLNSTACVLNGYDVTVNAFNDTKEATTDGIHYLGWINEQVVQLFFNAVTNSSAPTVPSSNVSVTSPNVQLGQVPNLNPSTTNSFLPVQTIVTVPSSSATSASSGLNFGGSSQGGGSGIPQL” the “soluble on expression in E. coli” value was “not soluble”.
With “MAHHHHHHMEDFLTKLKKISEQYNNLLLEKKIIDKRIANIGENIRKYEETREKSLEDVELKKNQLLKNKNKHIIMCQKMEQLNGKLNEILIRKQSIDDDEEKKVINKQIHTVNNTYVLLKHVQNLNDAMLKDEGNRYYKLITENIHSKSFSNRKTLNILNSFLRKSRANIQERGSEGAKSSTPPAAIHSANYFKIIQTNDIVQKLLDLFSGDHTALTIDKQQFLFVLLMNVLRKIACASEMAIPPEDCNSRHHVIYNFLHNKYILHL” the “soluble on expression in E. coli” value was “soluble”.
For “MYLLRINIEGTINYGLYKYLYPALKAAEGKKSIAGLILVFNSGGGDAASSQLIHDLVKKIRKKKPVYSLALGICASGAYWIASASTKIYAIDTSLIGSIGVISIRPNVKKLMEKIGVDVMVYKSGKYKDMTSPFSEPNEEEKSVYQRLLDDIFEKFKRSVAEDRGIPSEKIDEIANGMVYSAKMAADNGLIDRIANYDDLVSDLTKEVGKRLKVKEFYIRKPLLQRLLGILEHHHHHH”, the “soluble on expression in E. coli” value was “not soluble”.
In the case of “MGHHHHHHSHMLPVELVRHDVKKTDETSQVELMLQVDPDLFWFNGHFTGQPLLPGVAQLDWVMHYATTVLAQGWTFLSIENIKFQQPILPGKTLRLVLIWHAGKQSLTFSYSILEGDTERTASSGKIKLTPIMEDNPCQ”, the “soluble on expression in E. coli” value is reported as “soluble”.
For “AAPDEITTAWPVNVGPLNPHLYTPNQMFAQSMVYEPLVKYQADGSVIPWLAKSWTHSEDGKTWTFTLRDDVKFSNGEPFDAEAAAENFRAVLDNRQRHAWLELANQIVDVKALSKTELQITLKSAYYPFLQELALPRPFRFIAPSQFKNHETMNGIKAPIGTGPWILQESKLNQYDVFVRNENYWGEKPAIKKITFNVIPDPTTRAVAFETGDIDLLYGNEGLLPLDTFARFSQNPAYHTQLSQPIETVMLALNTAKAPTNELAVREALNYAVNKKSLIDNALYGTQQVADTLFAPSVPYANLGLKPSQYDPQKAKALLEKAGWTLPAGKDIREKNGQPLRIELSFIGTDALSKSMAEIIRADMRQIGADVSLIGEEESSIYARQRDGRFGMIFHRTWGAPYDPHAFLSSMRVPSHADFQAQQGLADKPLIDKEIGEVLATHDETQRQALYRDILTRLHDEAVYLPISYISMMVVSKPELGNIPYAPIATEIPFEQIKPVKP”, the “soluble on expression in E. coli” value was “soluble”.
With “DKLYPCQCGKSFTHKSQRDRHMSMHLGLRPYGCGVCGKKFKMKHHLVGHMKIHTGIKPYECNICAKRFMWRDSFHRHVTSCTKSYEAAKAEQNTTEA” the “soluble on expression in E. coli” value was “soluble”.
For “MTLKFSYFGTRGIGEPIRMLLTDQEVAFIDHRFSWEQWADIKPTMIFGSCPCLTMGDKEIVQSGTIIRHLARIHGLNGTNEEETIFIDMFYEGVRDLHATYATMIYQNYENGRQPFIQDVLPEHLARLEKLFRTYENGENFVAGANISYVDYVLFEELDIQKILSPTALDRTPQLKKFHEQFGERKNLTEYLKKRAIMKTPVNGNGKQ”, the “soluble on expression in E. coli” value was “not soluble”.
For “MRDIDGGTMGYRVGVDIGGSFTDFAVFDEDNGEIKSLKVFSRPDQPGEEVIAGVRMLGERYGIQPEQITYFTHGTTVGINTVIQRKGLKLALFTTENFSDVLELARLKTPDMYHLLSRRPAPLVKRSMVFGIAERMGPDGTVRAPLDEASVERAVRQALDAGAEGIVVSLLHAYRNPAHELRVREIAEALA”, the “soluble on expression in E. coli” value was “not soluble”.
In the case of “MRGSGQFRVIGPGHPIRALVGDEAELPCRISPGKNATGMEVGWYRSPFSRVVHLYRNGKDQDAEQAPEYRGRTELLKESIGEGKVALRIQNVRFSDEGGYTCFFRDAEYQEEAAVELKVEDPFYWINPGRSRSHHHHHH”, the “soluble on expression in E. coli” value is reported as “soluble”.
